Publication PMC10782416, “Fluorescence Correlation Spectroscopy as a Versatile Method to Define Aptamer–Protein Interactions with Single-Molecule Sensitivity”

Experiments:
PDGF-BB = PDGF-BB (Homo sapiens, UniProt P01127 82-190); test: FCS; 1 mg/mL BSA; 1 mM Mg2+ in folding buffer; titration regime; PBS pH 7.4; aptamer folded in PBS with 5 mM MgCl2 (1 mM for AS1411 and 36t), 90 C 2 min then cooled; final buffer not detailed; overnight at room temperature; 100 pM aptamer (1 nM for serum proteins); conditions: protein: commercial; chain copies: 2; label: 5'-atto633
[1] = molecular target: T1, c-Met (soluble recombinant, hepatocyte growth factor receptor) (Homo sapiens, UniProt P08581 25-932); test: FCS; c-Met up to 100 nM; PBS pH 7.4; aptamer folded in PBS with 5 mM MgCl2 (1 mM for AS1411 and 36t), 90 C 2 min then cooled; final buffer not detailed; overnight at room temperature; 100 pM aptamer (1 nM for serum proteins); conditions: protein: commercial; tags: polyhistidine tag; chain copies: 2; label: 5'-atto633; G-quadruplex destabilized
transferrin (Tf) = transferrin (Tf) (Homo sapiens, UniProt P02787 20-698); test: FCS; Tf 1-100 uM; PBS pH 7.4; aptamer folded in PBS with 5 mM MgCl2 (1 mM for AS1411 and 36t), 90 C 2 min then cooled; final buffer not detailed; overnight at room temperature; 100 pM aptamer (1 nM for serum proteins); conditions: protein: native; label: 5'-atto633; G-quadruplex
[2] = molecular target: T1, c-Met (soluble recombinant, hepatocyte …); test: FCS kinetics (koff/kon); kon 1.70e4 M-1 s-1; koff 4.30e-4 s-1; PBS pH 7.4; aptamer folded in PBS with 5 mM MgCl2 (1 mM for AS1411 and 36t), 90 C 2 min then cooled; final buffer not detailed; overnight at room temperature; 100 pM aptamer (1 nM for serum proteins); conditions: protein: commercial; tags: polyhistidine tag; label: 5'-atto633; G-quadruplex
[3] = molecular target: T1, c-Met (soluble recombinant, hepatocyte …); test: FCS; serum protein mix: HSA, IgG, transferrin, fibrinogen; PBS pH 7.4; aptamer folded in PBS with 5 mM MgCl2 (1 mM for AS1411 and 36t), 90 C 2 min then cooled; final buffer not detailed; overnight at room temperature; 100 pM aptamer (1 nM for serum proteins); conditions: protein: commercial; tags: polyhistidine tag; label: 5'-atto633; G-quadruplex
[4] = molecular target: T1, c-Met (soluble recombinant, hepatocyte …); test: FCS; 5 mM Mg2+ in folding buffer; 100 pM aptamer; PBS pH 7.4; aptamer folded in PBS with 5 mM MgCl2 (1 mM for AS1411 and 36t), 90 C 2 min then cooled; final buffer not detailed; overnight at room temperature; 100 pM aptamer (1 nM for serum proteins); conditions: protein: commercial; tags: polyhistidine tag; label: 5'-atto633; G-quadruplex
fibrinogen (Fibr) = fibrinogen (Fibr) (Homo sapiens, UniProt P02671;P02675;P02679 20-629;31-491;27-433); test: FCS; fibrinogen 1-10 uM; PBS pH 7.4; aptamer folded in PBS with 5 mM MgCl2 (1 mM for AS1411 and 36t), 90 C 2 min then cooled; final buffer not detailed; overnight at room temperature; 100 pM aptamer (1 nM for serum proteins); conditions: protein: native; chain copies: 2;2;2; label: 5'-atto633; G-quadruplex
nucleolin (NCL) = nucleolin (NCL) (Homo sapiens, UniProt P19338 1-710); test: FCS; 1 mM Mg2+ in folding buffer; PBS pH 7.4; aptamer folded in PBS with 5 mM MgCl2 (1 mM for AS1411 and 36t), 90 C 2 min then cooled; final buffer not detailed; overnight at room temperature; 100 pM aptamer (1 nM for serum proteins); conditions: protein: commercial; label: 5'-atto633
Chain of nucleolin (NCL) (P19338 whole entry): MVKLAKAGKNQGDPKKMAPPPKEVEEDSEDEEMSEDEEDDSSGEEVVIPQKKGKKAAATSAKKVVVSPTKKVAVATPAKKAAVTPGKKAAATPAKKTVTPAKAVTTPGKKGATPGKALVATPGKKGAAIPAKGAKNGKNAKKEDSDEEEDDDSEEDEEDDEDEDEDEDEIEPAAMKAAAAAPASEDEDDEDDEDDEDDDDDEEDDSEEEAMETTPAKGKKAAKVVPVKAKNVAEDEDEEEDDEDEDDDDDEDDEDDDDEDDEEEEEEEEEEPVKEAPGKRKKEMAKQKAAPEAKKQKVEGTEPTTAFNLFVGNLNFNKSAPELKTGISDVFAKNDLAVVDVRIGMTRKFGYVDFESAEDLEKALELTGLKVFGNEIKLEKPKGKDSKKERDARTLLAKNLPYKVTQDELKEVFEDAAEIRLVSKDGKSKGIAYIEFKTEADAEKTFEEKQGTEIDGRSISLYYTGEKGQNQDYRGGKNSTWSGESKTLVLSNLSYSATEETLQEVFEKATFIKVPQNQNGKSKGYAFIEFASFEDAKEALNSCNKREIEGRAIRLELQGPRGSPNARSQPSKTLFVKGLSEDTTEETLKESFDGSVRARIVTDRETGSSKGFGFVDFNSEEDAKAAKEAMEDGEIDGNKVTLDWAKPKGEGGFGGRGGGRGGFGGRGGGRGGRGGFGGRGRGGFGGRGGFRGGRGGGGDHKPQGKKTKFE

T1 sequence (P08581 25-932): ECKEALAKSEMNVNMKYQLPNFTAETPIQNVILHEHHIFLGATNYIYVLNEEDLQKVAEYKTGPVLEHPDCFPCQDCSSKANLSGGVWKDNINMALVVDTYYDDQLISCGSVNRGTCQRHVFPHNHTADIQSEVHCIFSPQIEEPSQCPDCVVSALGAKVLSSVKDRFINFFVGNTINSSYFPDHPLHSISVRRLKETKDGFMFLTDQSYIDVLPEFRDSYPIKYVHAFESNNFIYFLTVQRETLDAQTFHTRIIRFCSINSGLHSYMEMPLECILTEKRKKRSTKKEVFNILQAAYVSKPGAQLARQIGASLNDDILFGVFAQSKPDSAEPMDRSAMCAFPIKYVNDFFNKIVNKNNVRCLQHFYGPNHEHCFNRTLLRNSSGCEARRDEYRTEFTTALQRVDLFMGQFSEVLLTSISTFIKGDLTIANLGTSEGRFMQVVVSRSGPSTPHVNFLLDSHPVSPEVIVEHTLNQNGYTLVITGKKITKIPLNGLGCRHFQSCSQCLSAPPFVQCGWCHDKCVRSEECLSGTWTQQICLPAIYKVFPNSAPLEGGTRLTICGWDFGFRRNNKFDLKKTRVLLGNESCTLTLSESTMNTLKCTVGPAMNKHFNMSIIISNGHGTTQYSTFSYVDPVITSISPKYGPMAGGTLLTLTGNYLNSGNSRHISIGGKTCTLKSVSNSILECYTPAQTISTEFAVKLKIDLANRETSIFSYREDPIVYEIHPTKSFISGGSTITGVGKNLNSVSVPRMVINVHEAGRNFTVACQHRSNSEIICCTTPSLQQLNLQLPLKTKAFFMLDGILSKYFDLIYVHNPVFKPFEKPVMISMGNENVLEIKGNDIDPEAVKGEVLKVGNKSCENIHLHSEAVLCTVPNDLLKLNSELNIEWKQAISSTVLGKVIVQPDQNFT
Chain of fibrinogen (Fibr) (P02671 20-629, chain 1 of 3): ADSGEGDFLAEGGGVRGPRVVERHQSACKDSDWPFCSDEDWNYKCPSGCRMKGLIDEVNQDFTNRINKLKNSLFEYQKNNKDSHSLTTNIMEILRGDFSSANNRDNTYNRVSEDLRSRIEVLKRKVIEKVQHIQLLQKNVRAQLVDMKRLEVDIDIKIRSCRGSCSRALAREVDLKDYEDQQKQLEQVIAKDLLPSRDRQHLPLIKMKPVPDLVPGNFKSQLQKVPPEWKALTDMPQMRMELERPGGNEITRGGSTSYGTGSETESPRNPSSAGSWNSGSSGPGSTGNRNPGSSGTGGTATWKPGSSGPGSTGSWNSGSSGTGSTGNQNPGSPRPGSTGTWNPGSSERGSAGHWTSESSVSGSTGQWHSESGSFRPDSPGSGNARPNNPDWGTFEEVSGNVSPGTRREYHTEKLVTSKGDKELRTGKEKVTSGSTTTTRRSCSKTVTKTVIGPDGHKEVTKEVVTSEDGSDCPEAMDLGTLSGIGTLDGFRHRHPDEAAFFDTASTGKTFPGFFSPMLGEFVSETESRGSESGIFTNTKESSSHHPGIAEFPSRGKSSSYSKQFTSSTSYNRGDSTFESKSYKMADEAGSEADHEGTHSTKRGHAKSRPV
Chain of fibrinogen (Fibr) (P02675 31-491, chain 2 of 3): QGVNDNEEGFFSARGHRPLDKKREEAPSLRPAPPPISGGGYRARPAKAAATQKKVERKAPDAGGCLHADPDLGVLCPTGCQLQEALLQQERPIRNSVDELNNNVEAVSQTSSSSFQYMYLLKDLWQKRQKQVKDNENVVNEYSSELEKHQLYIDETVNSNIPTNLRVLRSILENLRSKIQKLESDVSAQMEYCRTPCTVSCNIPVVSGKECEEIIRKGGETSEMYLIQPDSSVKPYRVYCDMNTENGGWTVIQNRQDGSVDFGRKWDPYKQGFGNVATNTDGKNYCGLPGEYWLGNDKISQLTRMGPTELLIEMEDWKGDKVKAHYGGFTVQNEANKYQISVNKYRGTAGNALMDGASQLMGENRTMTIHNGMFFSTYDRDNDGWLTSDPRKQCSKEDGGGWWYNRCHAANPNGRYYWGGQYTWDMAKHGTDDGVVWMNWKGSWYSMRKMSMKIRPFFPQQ
Chain of fibrinogen (Fibr) (P02679 27-433, chain 3 of 3): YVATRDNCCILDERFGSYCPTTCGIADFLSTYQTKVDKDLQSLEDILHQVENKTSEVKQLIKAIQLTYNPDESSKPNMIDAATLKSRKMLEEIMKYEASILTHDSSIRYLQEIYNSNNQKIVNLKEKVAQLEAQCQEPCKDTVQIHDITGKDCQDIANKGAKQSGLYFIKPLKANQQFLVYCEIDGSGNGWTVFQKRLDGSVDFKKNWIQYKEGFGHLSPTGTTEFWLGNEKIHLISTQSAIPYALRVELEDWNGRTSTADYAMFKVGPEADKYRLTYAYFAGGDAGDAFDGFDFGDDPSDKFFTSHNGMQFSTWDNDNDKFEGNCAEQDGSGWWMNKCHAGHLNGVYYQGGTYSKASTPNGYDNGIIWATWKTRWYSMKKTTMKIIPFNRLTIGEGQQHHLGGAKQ
Chain of PDGF-BB (P01127 82-190): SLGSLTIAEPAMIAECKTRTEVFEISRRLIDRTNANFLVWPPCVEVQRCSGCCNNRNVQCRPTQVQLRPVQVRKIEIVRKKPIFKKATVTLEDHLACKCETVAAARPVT
Chain of transferrin (Tf) (P02787 20-698): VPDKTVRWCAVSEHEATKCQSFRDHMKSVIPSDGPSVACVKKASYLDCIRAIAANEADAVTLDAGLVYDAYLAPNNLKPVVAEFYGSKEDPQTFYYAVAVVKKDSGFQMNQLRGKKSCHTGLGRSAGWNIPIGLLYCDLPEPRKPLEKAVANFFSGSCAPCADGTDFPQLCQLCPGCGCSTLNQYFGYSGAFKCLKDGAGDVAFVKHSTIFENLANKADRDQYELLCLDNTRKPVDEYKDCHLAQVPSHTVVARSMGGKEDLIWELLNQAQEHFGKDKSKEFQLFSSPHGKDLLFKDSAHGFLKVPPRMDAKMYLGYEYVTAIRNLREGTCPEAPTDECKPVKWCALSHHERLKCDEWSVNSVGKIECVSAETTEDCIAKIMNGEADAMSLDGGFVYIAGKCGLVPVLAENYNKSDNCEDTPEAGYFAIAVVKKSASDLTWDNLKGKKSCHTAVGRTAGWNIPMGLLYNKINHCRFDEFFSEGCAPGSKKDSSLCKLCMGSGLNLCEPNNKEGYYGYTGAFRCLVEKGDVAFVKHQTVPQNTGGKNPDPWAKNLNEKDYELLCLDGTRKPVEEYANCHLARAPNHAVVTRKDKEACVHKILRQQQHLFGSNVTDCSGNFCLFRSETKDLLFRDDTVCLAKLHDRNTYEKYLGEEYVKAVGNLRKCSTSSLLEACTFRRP

Q: With CACAGGCTACGGCACGTAGAGCATCACCATGATCCTGTG (structured_DNA) [36t] as the binder, how does the Kd (PDGF-BB) read?
A: < 1 nM

B1: G5mut (ssDNA)
DNA: ATCAGGCTGGATGGTAGCTCGGTCGATGTGGATGGTTTGTCAAGTCTGATTA
Q: Does B1 bind [1]?
A: no binding

B2: CLN3 (structured_DNA)
DNA: ATCAGGTGGATGGTAGCTCGGTCGGGGTGGGTGGGTTGGCAAGTCTGATTA
Q: Does B2 bind (transferrin (Tf))?
A: no binding

Q: And the Kd [2]?
A: ~25 nM

Q: And the Kd [3]?
A: 5 nM

Q: And the Kd [4]?
A: 5 ± 1 nM

Q: Does B2 bind (fibrinogen (Fibr))?
A: no binding

Q: TTTGGTGGTGGTGGTTGTGGTGGTGGTGG (structured_DNA) [AS1411] was tested. Which Kd (nucleolin (NCL)) did it give?
A: 30 nM
